Columns and labels:
[1] = target: human B7-H3 expressed on the surface of human cancer cell lines (human) (UniProt Q5ZPR3); test: FACS on Hela cells, 10 ug/ml
[2] = target: human B7-H3 expressed on the surface of human cancer cell lines (human) (UniProt Q5ZPR3); test: FACS on OVCAR-3 cells, 10 ug/ml
[3] = target: human B7-H3 expressed on the surface of human cancer cell lines (human) (UniProt Q5ZPR3); test: FACS on A-498 cells, 10 ug/ml
[4] = target: human B7-H3 expressed on the surface of human cancer cell lines (human) (UniProt Q5ZPR3); test: FACS on 786-0 cells, 10 ug/ml
[5] = target: human B7-H3 expressed on the surface of human cancer cell lines (human) (UniProt Q5ZPR3); test: FACS on MCF-7 cells, 10 ug/ml
[6] = target: human B7-H3 expressed on the surface of human cancer cell lines (human) (UniProt Q5ZPR3); test: FACS on NCI-N87 cells, 10 ug/ml
[7] = target: human B7-H3 expressed on the surface of human cancer cell lines (human) (UniProt Q5ZPR3); test: FACS on Panc-1 cells, 10 ug/ml
[8] = target: human B7-H3 expressed on the surface of human cancer cell lines (human) (UniProt Q5ZPR3); test: FACS on JeKo-1 cells, 10 ug/ml
[9] = target: human B7-H3 expressed on the surface of human cancer cell lines (human) (UniProt Q5ZPR3); test: FACS on MDA-MB-231 cells, 10 ug/ml
[10] = target: human B7-H3 expressed on the surface of human cancer cell lines (human) (UniProt Q5ZPR3); test: FACS on Calu-6 cells, 10 ug/ml
[11] = target: human B7-H3 expressed on the surface of human cancer cell lines (human) (UniProt Q5ZPR3); test: FACS on HCT116 cells, 10 ug/ml
[12] = target: human B7-H3 expressed on the surface of human cancer cell lines (human) (UniProt Q5ZPR3); test: FACS on SKOV-3 cells, 10 ug/ml
[13] = target: human B7-H3 expressed on the surface of human cancer cell lines (human) (UniProt Q5ZPR3); test: FACS on HCC1187 cells, 10 ug/ml
[14] = target: human B7-H3 expressed on the surface of human cancer cell lines (human) (UniProt Q5ZPR3); test: FACS on HCC1954 cells, 10 ug/ml
[15] = target: human B7-H3 expressed on the surface of human cancer cell lines (human) (UniProt Q5ZPR3); test: FACS on A2780 cells, 10 ug/ml
[16] = target: human B7-H3 expressed on the surface of human cancer cell lines (human) (UniProt Q5ZPR3); test: FACS on MDA-MB-468 cells, 10 ug/ml
[17] = target: human B7-H3 expressed on the surface of human cancer cell lines (human) (UniProt Q5ZPR3); test: FACS on HT29 cells, 10 ug/ml
[18] = target: human B7-H3 expressed on the surface of human cancer cell lines (human) (UniProt Q5ZPR3); test: FACS on DLD-1 cells, 10 ug/ml

human B7-H3 expressed on the surface of human cancer cell lines (human), sequence (Q5ZPR3 29-534): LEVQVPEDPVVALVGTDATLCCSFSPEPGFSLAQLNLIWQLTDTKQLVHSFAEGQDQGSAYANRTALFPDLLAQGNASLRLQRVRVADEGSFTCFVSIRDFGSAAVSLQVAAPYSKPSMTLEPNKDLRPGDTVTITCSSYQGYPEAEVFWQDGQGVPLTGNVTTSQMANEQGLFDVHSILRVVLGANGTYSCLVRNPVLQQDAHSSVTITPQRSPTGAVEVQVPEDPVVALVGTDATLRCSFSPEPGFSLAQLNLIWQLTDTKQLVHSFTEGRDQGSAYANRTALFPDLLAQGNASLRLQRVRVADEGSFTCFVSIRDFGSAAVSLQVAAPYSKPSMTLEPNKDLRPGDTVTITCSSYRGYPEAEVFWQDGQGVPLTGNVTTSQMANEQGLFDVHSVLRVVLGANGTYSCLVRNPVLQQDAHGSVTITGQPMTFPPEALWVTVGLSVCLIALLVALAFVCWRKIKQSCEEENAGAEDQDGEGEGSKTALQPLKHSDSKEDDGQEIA

B1: 84D (comparison anti-B7-H3 antibody, Enoblituzumab variable regions) (antibody, part only; not given: constant regions, V domains shown, not shown: another chain or arm of the molecule)
VH: EVQLVESGGGLVQPGGSLRLSCAASGFTFSSFGMHWVRQAPGKGLEWVAYISSDSSAIYYADTVKGRFTISRDNAKNSLYLQMNSLRDEDTAVYYCGRGRENIYYGSRLDYWGQGTTVTVSS
VL: DIQLTQSPSFLSASVGDRVTITCKASQNVDTNVAWYQQKPGKAPKALIYSASYRYSGVPSRFSGSGSGTDFTLTISSLQPEDFATYYCQQYNNYPFTFGQGTKLEIK
Binder B1 has an MFI Ratio [1] of 23.5, an MFI Ratio [2] of 13.7 and an MFI Ratio [3] of 24. For the same binder, the MFI Ratio [4] was 20, the MFI Ratio [5] was 78 and the MFI Ratio [6] was 12.8. The MFI Ratio [7] was 9, the MFI Ratio [8] was 2.9 and the MFI Ratio [9] was 5.4. For the same binder, the MFI Ratio [10] was 23.2, the MFI Ratio [11] was 5.9 and the MFI Ratio [12] was 11.9. For the same binder, the MFI Ratio [13] was 14.9, the MFI Ratio [14] was 14 and the MFI Ratio [15] was 13.1. For the same binder, the MFI Ratio [16] was 8.6, the MFI Ratio [17] was 8.9 and the MFI Ratio [18] was 10.7.

Source: patent US20230192861A1
